Laboratory results published in patent US20210269548A1 (Kyowa Kirin, published 2021).

T1: monkey CSPG5 (monkey (rhesus monkey), UniProt O95196 31-566 (human entry))
T1 construct: Full-length gene expressed on Expi293F cells; also called monkey CSPG5/Expi293F cells; rhesus monkey CSPG5
T1 chain: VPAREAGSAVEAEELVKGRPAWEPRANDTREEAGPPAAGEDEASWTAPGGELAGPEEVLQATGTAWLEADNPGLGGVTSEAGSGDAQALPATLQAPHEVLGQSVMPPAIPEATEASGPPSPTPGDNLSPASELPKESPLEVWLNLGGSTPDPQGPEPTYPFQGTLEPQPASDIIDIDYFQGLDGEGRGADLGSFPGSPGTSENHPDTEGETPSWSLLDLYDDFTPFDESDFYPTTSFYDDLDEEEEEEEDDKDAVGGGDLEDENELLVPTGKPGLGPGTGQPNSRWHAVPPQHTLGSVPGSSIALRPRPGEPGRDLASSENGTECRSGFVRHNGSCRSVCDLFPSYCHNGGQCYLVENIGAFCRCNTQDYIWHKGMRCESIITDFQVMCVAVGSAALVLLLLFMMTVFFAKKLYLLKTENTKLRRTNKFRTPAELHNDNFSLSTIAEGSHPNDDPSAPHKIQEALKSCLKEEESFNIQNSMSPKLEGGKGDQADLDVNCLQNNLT

T2: mouse CSPG5 (mouse, UniProt Q71M36 31-566)
T2 construct: Full-length gene expressed on Expi293F cells; also called mouse CSPG5/Expi293F cells
T2 sequence: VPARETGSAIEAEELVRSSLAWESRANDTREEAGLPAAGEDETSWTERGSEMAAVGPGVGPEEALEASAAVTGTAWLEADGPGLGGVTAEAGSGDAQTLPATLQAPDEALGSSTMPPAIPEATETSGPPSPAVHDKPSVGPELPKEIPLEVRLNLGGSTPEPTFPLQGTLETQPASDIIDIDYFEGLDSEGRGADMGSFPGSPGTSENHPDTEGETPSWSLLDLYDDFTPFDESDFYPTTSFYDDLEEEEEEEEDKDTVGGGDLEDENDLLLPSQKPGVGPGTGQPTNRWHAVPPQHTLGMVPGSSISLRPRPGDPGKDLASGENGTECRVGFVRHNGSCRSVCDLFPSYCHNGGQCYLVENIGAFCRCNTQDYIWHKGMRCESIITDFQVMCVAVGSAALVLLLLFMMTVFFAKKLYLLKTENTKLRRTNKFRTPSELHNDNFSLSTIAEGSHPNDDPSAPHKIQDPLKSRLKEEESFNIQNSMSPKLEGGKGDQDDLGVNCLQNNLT

T3: human CSPG5 (human, UniProt O95196 31-566)
T3 construct: Full-length gene expressed on cell membrane (Expi293F, L929); also called human CSPG5/Expi293F cells; human CSPG5/L929#09
T3 sequence: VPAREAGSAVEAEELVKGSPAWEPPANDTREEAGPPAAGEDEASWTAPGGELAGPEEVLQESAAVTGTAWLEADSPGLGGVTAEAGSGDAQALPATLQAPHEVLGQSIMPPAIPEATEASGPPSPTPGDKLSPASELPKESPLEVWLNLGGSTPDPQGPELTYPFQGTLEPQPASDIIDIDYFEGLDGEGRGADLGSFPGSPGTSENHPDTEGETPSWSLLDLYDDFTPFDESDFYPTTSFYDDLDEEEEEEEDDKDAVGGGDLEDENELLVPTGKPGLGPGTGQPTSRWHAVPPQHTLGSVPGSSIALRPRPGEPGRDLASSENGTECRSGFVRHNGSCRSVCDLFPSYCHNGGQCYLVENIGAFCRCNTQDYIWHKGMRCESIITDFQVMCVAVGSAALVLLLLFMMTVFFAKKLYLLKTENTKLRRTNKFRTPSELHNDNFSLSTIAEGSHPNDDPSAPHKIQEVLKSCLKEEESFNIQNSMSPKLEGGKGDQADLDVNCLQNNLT


Key:
[1] = biological target: T1, monkey CSPG5; test: FACS on CSPG5/Expi293F cells
Protocol: (§1) Expi293F cells, human CSPG5/Expi293F cells, mouse CSPG5/Expi293F cells, and monkey CSPG5/Expi293F cells were separately suspended in Staining Buffer (SB) of PBS comprising 0.1% NaN₃ and 1% FBS and dispensed in a round-bottom 96-well plate (manufactured by Becton, Dickinson and Company). After centrifugation (2000 rpm, 4° C., 2 minutes), the supernatant was removed, and to the resulting pellet, 10 μg/mL of each antibody obtained in Example 2 was added to suspend the pellet, and the resulting suspension was left to stand for 30 minutes at ice temperature. After further centrifugation (2000 rpm, 4° C., 2 minutes), the supernatant was removed, and the resulting pellet was washed with SB, and thereafter, 1 μg/mL of an RPE fluorescently labeled goat anti-human antibody (manufactured by Southern Biotech, Inc.) was added thereto, and the resultant was incubated for 30 minutes at ice temperature. After washing with SB, the cells were suspended in SB, and the fluorescence intensity of each cell was measured using a flow cytometer FACS CANTO II (manufactured by Becton, Dickinson and Company). Note that as a negative control, 10 μg/mL of the anti-AVM antibody was used.

[2] = biological target: T2, mouse CSPG5; test: FACS on CSPG5/Expi293F cells
Protocol: as §1

[3] = biological target: T3, human CSPG5; test: FACS on CSPG5/Expi293F cells
Protocol: as §1

[4] = biological target: mouse CSPG5-GST (mouse); test: SPR Biacore T-100, antibody captured, mouse CSPG5-GST analyte
Protocol: The affinity of the anti-CSPG5 antibodies, the CSPG5202 IgG4PE(R409K), and the AVM IgG4PE(R409K) CSPG5202 dscFv produced in Example 2 for human CSPG5 and mouse CSPG5 was measured using Biacore T-100 (GE Healthcare).
Each of the antibodies was immobilized on a […] sensor chip using a Human antibody Capture kit, and the binding ability was evaluated using human CSPG5-GST and mouse CSPG5-GST produced in Example 4 as analytes. The obtained sensorgram was analyzed with BIA evaluation software, and the dissociation constant (KD value) was calculated.

[5] = biological target: T1, monkey CSPG5; test: FACS, 10 µg/mL antibody, monkey CSPG5/Expi293F vs Expi293F
Protocol: as §1
(§2) The detection results were analyzed, and a mean fluorescence intensity (MFI) was calculated using a geometric mean. Further, with respect to the MFI when the concentration of each antibody was 10 μg/mL, the ratio of the MFI (mean fluorescence intensity ratio) between the human CSPG5/Expi293F cells and the Expi293F cells (parent cell line) was calculated. Also for the monkey CSPG5/Expi293F cells and the mouse CSPG5/Expi293F cells, the mean fluorescence intensity ratio relative to the Expi293F cells (parent cell line) was calculated by the same procedure, and the results are shown in Table 3.

[6] = biological target: T3, human CSPG5; test: FACS, 10 µg/mL antibody, human CSPG5/Expi293F vs Expi293F
Protocol: as §1, §2

[7] = biological target: T2, mouse CSPG5; test: FACS, 10 µg/mL antibody, mouse CSPG5/Expi293F vs Expi293F
Protocol: as §1, §2

| Binder | binding result [1] | binding result [2] | binding result [3] | Kd [4] [nM] | Mean fluorescence intensity ratio [5] | Mean fluorescence intensity ratio [6] | Mean fluorescence intensity ratio [7] |
| --- | --- | --- | --- | --- | --- | --- | --- |
| AVM IgG4PE(R409K) CSPG5202 dscFv (bispecific antibody, also called anti-AVM-IgG4-CSPG5 dscFv bispecific antibody) heavy: not shown light: QFVLSQPNSVSTNLGSTVKLSCKRSTGNIGSNYVSWYQQHEGRSPTTMIYRDDKRPDGVPDRFSGSIDRSSDSALLTINNVQTEDEADYFCQSYSSGINIFGGGTKLTVLGQPKAAPSVTLFPPSSEELQANKATLVCLISDFYPGAVTVAWKADSSPVKAGVETTTPSKQSNNKYAASSYLSLTPEQWKSHRSYSCQVTHEGSTVEKTVAPTECS | binds | binds | binds | ≤ 10 |  |  |  |
| CSPG5115 scFv-hG4PE(R409K) (Fc fusion, also called anti-CSPG5 scFv-Fc antibody) VH: EVQLVQSGAEVKKPGASLKVSCKASGYSFTDYIIHWVRQAPGQSLEWMGWINGGSGVPKYSDKFQGRVTITRDTSANTAYMEIRSLGSEDTAVYYCARGGVCSGDKCYYYGMDVWGQGTTVTVSS VL: QSVLTQPPSVSVSPGQTASITCSGDKLGDKYSWWYQQKPGQSPLLVIHQDNKRPSGIPERFSGSNSGNTATLTIVGTQAMDEADYYCQAWDRGVVFGGGTKLTVL |  |  |  | ≤ 10 | 3.56 ratio to parent cell line | 3.24 ratio to parent cell line | 3.44 ratio to parent cell line |

Second part, the binder after the results:

| binding result [1] | binding result [2] | binding result [3] | Kd [4] [nM] | Mean fluorescence intensity ratio [5] | Mean fluorescence intensity ratio [6] | Mean fluorescence intensity ratio [7] | Binder |
| --- | --- | --- | --- | --- | --- | --- | --- |
|  |  |  | ≤ 10 | 3.36 ratio to parent cell line | 5.46 ratio to parent cell line | 5.81 ratio to parent cell line | CSPG5168 scFv-hG4PE(R409K) (Fc fusion, also called anti-CSPG5 scFv-Fc antibody) VH: EVQLVETGGALVQPGGSLRLSCAGSGFIFSKYEMTWVRQAPGKGLEWVSTIGSLGLKTFYTDSVKGRFTTSRDNSRDTLFLQMDNLRVEDTAIYFCVKGGIRRADYWGKGTLVTVSS VL: EIVMTQSPATLSLSPGERATLSCRASQSVSSYLAWYQQKPGQAPRLLIYDASNRATGIPARFSGSGSGTDFTLTISSLEPEDFAVYYCQQRSNWPLTFGGGTKVEIK |
|  |  |  | ≤ 10 | 8.01 ratio to parent cell line | 18.5 ratio to parent cell line | 20.4 ratio to parent cell line | CSPG5120 scFv-hG4PE(R409K) (Fc fusion, also called anti-CSPG5 scFv-Fc antibody) VH: EVQLVQSGGGLVQPGGSLRLSCAASGFTFSNYWMTWVRQAPGEGPEWVANINQDGSQKYYVDSVKGRFTISRDNAKNSLNLQMNNLRAEDTALYYCAKSNAMDVWGQGTLVTVSS VL: DIVMTQSPLSLPVTPGEPASISCRSSESLLHSNGYNYLNWYLQKPGQSPQLLIYLGSHRASGVPDRLSGSGSDTDFTLKISRVEAEDVGIYYCMQGRQTPITFGGGTKLEIK |
